Data published in patent EP4803149A2 (Lyvgen Biopharma Holdings Limited, dated 2026).

B1: Ly2278 (bispecific antibody)
chain 1: QVQLQQSGAELVRPGSSVKISCKASGYAFSSYWMNWVKQRPGQGLEWIGQIWPGDGDTNYNGKFKGKATLTADESSSTAYMQLSSLASEDSAVYFCARRETTTVGRYYYAMDYWGQGTTVTVSSASTKGPSVFPLAPSSKSTSGGTAALGCLVKDYFPEPVTVSWNSGALTSGVHTFPAVLQSSGLYSLSSVVTVPSSSLGTQTYICNVNHKPSNTKVDKKVEPKSCGGGGSGGGGSGGGGSGGGGSEVQLVESGGGLVQPGGSLRLSCAASGFTFSTYAMNWVRQAPGKGLEWVGRIRSKYNNYATYYADSVKGRFTISRDDSKNSLYLQMNSLKTEDTAVYYCVRHGNFGNSYVSWFAYWGQGTLVTVSSGGGGSDKTHTCPPCPAPEAAGPSVFLFPPKPKDTLMISRTPEVTCVVVDVSHEDPEVKFNWYVDGVEVHNAKTKPREEQYNSTYRVVSVLTVLHQDWLNGKEYKCKVSNKALPAPIEKTISKAKGQPREPQVYTLPPSREEMTKNQVSLWCLVKGFYPSDIAVEWESNGQPENNYKTTPPVLDSDGSFFLYSKLTVDKSRWQQGNVFSCSVMHEALHNHYTQKSLSLSPG
chain 2: QVQLQQSGAELVRPGSSVKISCKASGYAFSSYWMNWVKQRPGQGLEWIGQIWPGDGDTNYNGKFKGKATLTADESSSTAYMQLSSLASEDSAVYFCARRETTTVGRYYYAMDYWGQGTTVTVSSASTKGPSVFPLAPSSKSTSGGTAALGCLVKDYFPEPVTVSWNSGALTSGVHTFPAVLQSSGLYSLSSVVTVPSSSLGTQTYICNVNHKPSNTKVDKKVEPKSCGGGGSGGGGSGGGGSGGGGSQAVVTQEPSLTVSPGGTVTLTCRSSTGAVTTSNYANWVQQKPGQAPRGLIGGTNKRAPWTPARFSGSLLGGKAALTITGAQAEDEADYYCALWYSNLWVFGGGTKLTVLGGGGSDKTHTCPPCPAPEAAGPSVFLFPPKPKDTLMISRTPEVTCVVVDVSHEDPEVKFNWYVDGVEVHNAKTKPREEQYNSTYRVVSVLTVLHQDWLNGKEYKCKVSNKALPAPIEKTISKAKGQPREPQVYTLPPSREEMTKNQVSLSCAVKGFYPSDIAVEWESNGQPENNYKTTPPVLDSDGSFFLVSKLTVDKSRWQQGNVFSCSVMHEALHNRFTQKSLSLSPG
chain 3: not shown
notes: CD19/CD3; central CD3 Fv
B2: Ly1965 (bispecific antibody)
chain 1: QVQLVQSGAEVKKPGASVKVSCKASGYTFTSYVMHWVRQKPGQGLEWIGYINPYNEGTESTDKFKGRATMTSDKSTSTVYMELSSLRSEDTAVYYCASIYYGYEGTYFGVWGQGTLVTVSSASTKGPSVFPLAPSSKSTSGGTAALGCLVKDYFPEPVTVSWNSGALTSGVHTFPAVLQSSGLYSLSSVVTVPSSSLGTQTYICNVNHKPSNTKVDKKVEPKSCGGGGSGGGGSGGGGSGGGGSEVQLVESGGGLVQPGGSLRLSCAASGFTFSTYAMNWVRQAPGKGLEWVGRIRSKYNNYATYYADSVKGRFTISRDDSKNSLYLQMNSLKTEDTAVYYCVRHGNFGNSYVSWFAYWGQGTLVTVSSGGGGSDKTHTCPPCPAPEAAGPSVFLFPPKPKDTLMISRTPEVTCVVVDVSHEDPEVKFNWYVDGVEVHNAKTKPREEQYNSTYRVVSVLTVLHQDWLNGKEYKCKVSNKALPAPIEKTISKAKGQPREPQVYTLPPSREEMTKNQVSLWCLVKGFYPSDIAVEWESNGQPENNYKTTPPVLDSDGSFFLYSKLTVDKSRWQQGNVFSCSVMHEALHNHYTQKSLSLSPG
chain 2: QVQLVQSGAEVKKPGASVKVSCKASGYTFTSYVMHWVRQKPGQGLEWIGYINPYNEGTESTDKFKGRATMTSDKSTSTVYMELSSLRSEDTAVYYCASIYYGYEGTYFGVWGQGTLVTVSSASTKGPSVFPLAPSSKSTSGGTAALGCLVKDYFPEPVTVSWNSGALTSGVHTFPAVLQSSGLYSLSSVVTVPSSSLGTQTYICNVNHKPSNTKVDKKVEPKSCGGGGSGGGGSGGGGSGGGGSQAVVTQEPSLTVSPGGTVTLTCRSSTGAVTTSNYANWVQQKPGQAPRGLIGGTNKRAPWTPARFSGSLLGGKAALTITGAQAEDEADYYCALWYSNLWVFGGGTKLTVLGGGGSDKTHTCPPCPAPEAAGPSVFLFPPKPKDTLMISRTPEVTCVVVDVSHEDPEVKFNWYVDGVEVHNAKTKPREEQYNSTYRVVSVLTVLHQDWLNGKEYKCKVSNKALPAPIEKTISKAKGQPREPQVYTLPPSREEMTKNQVSLSCAVKGFYPSDIAVEWESNGQPENNYKTTPPVLDSDGSFFLVSKLTVDKSRWQQGNVFSCSVMHEALHNRFTQKSLSLSPG
chain 3: EIVLTQSPATLSLSPGERATLSCRASSSVSYMHWYQQKPGQAPRPWIYATSNLASGIPARFSGSRSGTDYTLTISSLEPEDFAVYYCQQWSSNTLTFGGGTKVEIKRTVAAPSVFIFPPSDEQLKSGTASVVCLLNNFYPREAKVQWKVDNALQSGNSQESVTEQDSKDSTYSLSSTLTLSKADYEKHKVYACEVTHQGLSSPVTKSFNRGEC
notes: B7H3/CD3; central CD3 Fv
B3: Ly1963 (multi-specific antibody)
chain 1: QVQLVQSGAEVKKPGASVKVSCKASGYTFTSYVMHWVRQKPGQGLEWIGYINPYNEGTESTDKFKGRATMTSDKSTSTVYMELSSLRSEDTAVYYCASIYYGYEGTYFGVWGQGTLVTVSSASTKGPSVFPLAPSSKSTSGGTAALGCLVKDYFPEPVTVSWNSGALTSGVHTFPAVLQSSGLYSLSSVVTVPSSSLGTQTYICNVNHKPSNTKVDKKVEPKSCGGGGSGGGGSGGGGSGGGGSEVQLVESGGGLVQPGGSLRLSCAASGFTFSTYAMNWVRQAPGKGLEWVGRIRSKYNNYATYYADSVKGRFTISRDDSKNSLYLQMNSLKTEDTAVYYCVRHGNFGNSYVSWFAYWGQGTLVTVSSGGGGSDKTHTCPPCPAPEAAGPSVFLFPPKPKDTLMISRTPEVTCVVVDVSHEDPEVKFNWYVDGVEVHNAKTKPREEQYNSTYRVVSVLTVLHQDWLNGKEYKCKVSNKALPAPIEKTISKAKGQPREPQVYTLPPSREEMTKNQVSLWCLVKGFYPSDIAVEWESNGQPENNYKTTPPVLDSDGSFFLYSKLTVDKSRWQQGNVFSCSVMHEALHNHYTQKSLSLSPGGGGGSGGGGSGGGGSGGGGSQVQLVQSGAEVKKPGASVKVSCKASGYTFAGFEMHWVRQAPGQGLEWMGAIDPKTGGTDYNQKFKDRVTMTRDTSISTAYMELSRLRSDDTAVYYCARDLGYFDVWGQGTLVTVSS
chain 2: QVQLVQSGAEVKKPGASVKVSCKASGYTFTSYVMHWVRQKPGQGLEWIGYINPYNEGTESTDKFKGRATMTSDKSTSTVYMELSSLRSEDTAVYYCASIYYGYEGTYFGVWGQGTLVTVSSASTKGPSVFPLAPSSKSTSGGTAALGCLVKDYFPEPVTVSWNSGALTSGVHTFPAVLQSSGLYSLSSVVTVPSSSLGTQTYICNVNHKPSNTKVDKKVEPKSCGGGGSGGGGSGGGGSGGGGSQAVVTQEPSLTVSPGGTVTLTCRSSTGAVTTSNYANWVQQKPGQAPRGLIGGTNKRAPWTPARFSGSLLGGKAALTITGAQAEDEADYYCALWYSNLWVFGGGTKLTVLGGGGSDKTHTCPPCPAPEAAGPSVFLFPPKPKDTLMISRTPEVTCVVVDVSHEDPEVKFNWYVDGVEVHNAKTKPREEQYNSTYRVVSVLTVLHQDWLNGKEYKCKVSNKALPAPIEKTISKAKGQPREPQVYTLPPSREEMTKNQVSLSCAVKGFYPSDIAVEWESNGQPENNYKTTPPVLDSDGSFFLVSKLTVDKSRWQQGNVFSCSVMHEALHNHYTQKSLSLSPGGGGGSGGGGSGGGGSGGGGSDIQMTQSPSSLSASVGDRVTITCRASQDIRSNLNWYQQKPGGAVKLLIYYTSRLHSGVPSRFSGSGSGTDYTLTISSLQPEDFATYFCQQSEKLPRTFGGGTKVEIR
chain 3: B2 chain 3
notes: B7H3/CD3/CD137 tri-specific; central CD3 Fv, terminal CD137 Fv
B4: Ly2128 (multi-specific antibody)
chain 1: QVQLVQSGAEVKKPGASVKVSCKASGYTFTSYVMHWVRQKPGQGLEWIGYINPYNEGTESTDKFKGRATMTSDKSTSTVYMELSSLRSEDTAVYYCASIYYGYEGTYFGVWGQGTLVTVSSASTKGPSVFPLAPSSKSTSGGTAALGCLVKDYFPEPVTVSWNSGALTSGVHTFPAVLQSSGLYSLSSVVTVPSSSLGTQTYICNVNHKPSNTKVDKKVEPKSCGGGGSGGGGSGGGGSGGGGSEVQLVESGGGLVQPGGSLRLSCAASGFTFSTYAMNWVRQAPGKGLEWVGRIRSKYNNYATYYADSVKGRFTISRDDSKNSLYLQMNSLKTEDTAVYYCVRHGNFGNSYVSWFAYWGQGTLVTVSSGGGGSDKTHTCPPCPAPEAAGPSVFLFPPKPKDTLMISRTPEVTCVVVDVSHEDPEVKFNWYVDGVEVHNAKTKPREEQYNSTYRVVSVLTVLHQDWLNGKEYKCKVSNKALPAPIEKTISKAKGQPREPQVYTLPPSREEMTKNQVSLWCLVKGFYPSDIAVEWESNGQPENNYKTTPPVLDSDGSFFLYSKLTVDKSRWQQGNVFSCSVMHEALHNHYTQKSLSLSPGGGGGSGGGGSGGGGSGGGGSQVQLVQSGAEVKKPGASVKVSCKASGYTFTSYYIHWVRQAPGQGLEWIGCIYPGNVNTNYNEKFKDRATLTVDTSISTAYMELSRLRSDDTAVYFCTRSHYGLDWNFDVWGQGTTVTVSS
chain 2: not shown
chain 3: B2 chain 3
notes: Tri-specific B7H3/CD3/CD28; central CD3 Fv, terminal CD28 Fv
B5: Anti-CD3 Ly305 (antibody, V domains shown)
VH: EVQLVESGGGLVQPGGSLRLSCAASGFTFSTYAMNWVRQAPGKGLEWVGRIRSKYNNYATYYADSVKGRFTISRDDSKNSLYLQMNSLKTEDTAVYYCVRHGNFGNSYVSWFAYWGQGTLVTVSS
VL: QAVVTQEPSLTVSPGGTVTLTCRSSTGAVTTSNYANWVQQKPGQAPRGLIGGTNKRAPWTPARFSGSLLGGKAALTITGAQAEDEADYYCALWYSNLWVFGGGTKLTVL
notes: mAb; also called parent anti-CD3 mAb

Molecular target: CD3 (human)
Test: ELISA or FCM (as in Example 2)

| Binder | EC50 [µg/mL] |
| --- | --- |
| B1 | 1.46 |
| B2 | 0.419 |
| B3 | 0.74 |
| B4 | 1.08 |
| B5 | 0.03 |
